Measurements published in PMC9789309.

Columns and labels:
[1] = target: ACE2, membrane-anchored, endogenously expressed on VeroE6 cells (African green monkey (endogenous in VeroE6)); assay: single-molecule force spectroscopy (AFM)
[2] = target: ACE2, membrane-anchored, endogenously expressed on VeroE6 cells (African green monkey (endogenous in VeroE6)); assay: single-molecule force spectroscopy (AFM) + kinetic model

| Substance | Kd [1] [pM] | on-rate of three bonds [1] [s⁻¹] | on-rate of two bonds [1] [s⁻¹] | percentage of one bond [1] [%] | bond lifetime at 20 pN (calculated) [2] [s] | bond lifetime at zero force (calculated) [2] [s] | percentage of three bonds [1] [%] | percentage of two bonds [1] [%] |
| --- | --- | --- | --- | --- | --- | --- | --- | --- |
| SARS-CoV-2 Delta variant RBD monomer (from UniProt P0DTC2) (domain or fragment) | 970 | – | – | – | – | – | – | – |
| SARS-CoV-2 Omicron (B.1.1.529) variant RBD monomer (from UniProt P0DTC2) (domain or fragment) | 68 | – | – | – | – | – | – | – |
| SARS-CoV-2 Delta variant Spike trimer (from UniProt P0DTC2) (natural protein) | 500 | 23 | 80 | 68.7 | 460 | 42000 | – | – |
| SARS-CoV-2 Omicron (B.1.1.529) variant Spike trimer (from UniProt P0DTC2) (natural protein) | 55 | – | 49 | 85.4 | 960 | 370000 | 1 | 13.6 |
